These results are taken from patent US20170362322A1 (published 2017).

The term IC50 denotes the concentration at which inhibition is half-maximal. Low readings indicate higher potency, high ones lower potency. Usually Kd stands for the constant that tells how readily two partners part at equilibrium. A low value points to tighter binding.

Residue numbers refer to the chain shown, from its start. Where two headings read alike, the source gives them in different places.

Assay [1] addresses T1, B7-H3 (human).
T1 chain: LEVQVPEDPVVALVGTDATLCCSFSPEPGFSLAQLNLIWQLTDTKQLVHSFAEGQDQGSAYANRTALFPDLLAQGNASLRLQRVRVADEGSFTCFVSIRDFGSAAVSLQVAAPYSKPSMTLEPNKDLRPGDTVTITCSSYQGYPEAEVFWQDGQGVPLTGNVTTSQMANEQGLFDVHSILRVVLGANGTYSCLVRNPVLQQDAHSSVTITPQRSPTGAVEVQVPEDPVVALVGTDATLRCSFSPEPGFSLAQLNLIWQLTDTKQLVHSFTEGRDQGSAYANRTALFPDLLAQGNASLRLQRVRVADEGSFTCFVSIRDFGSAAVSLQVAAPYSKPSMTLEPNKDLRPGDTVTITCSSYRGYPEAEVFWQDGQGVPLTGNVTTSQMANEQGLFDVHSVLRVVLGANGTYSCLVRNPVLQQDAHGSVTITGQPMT
Nature of the assay: competition ELISA (phage). (In general: In an ELISA, binding on a coated surface is turned into a signal by an enzyme label.)

Assay [2] has as its target T1, B7-H3. Nature of the assay: competition ELISA (phage).
In assay [3] the target is T1, B7-H3. Nature of the assay: Octet BLI; conc. 12.5 nM. A general note: BLI is a label-free optical method that tracks binding on a fibre tip over time.
The target of assay [4] is T1, B7-H3. Description: Octet BLI; conc. 25 nM.
Assay [5] has as its target T1, B7-H3. Description: Octet BLI; conc. 1.56 nM.
In assay [6] the target is T1, B7-H3. Nature of the assay: Octet BLI; conc. 100 nM.
Assay [7] deals with T1, B7-H3. Nature of the assay: Octet BLI; conc. 3.13 nM.
Assay [8] addresses T1, B7-H3. Nature of the assay: Octet BLI; conc. 50 nM.
Assay [9] addresses T1, B7-H3. Description: Octet BLI; conc. 6.25 nM.

B1: 2-8 (antibody, V domains shown)
VH: QVQLQQSGAEVKKPGASVKVSCKASGYTFTNYDINWVRQAPGQGLEWIGWIFPGDGSTQYNEKFKGRATLTTDTSTSTAYMELSSLRSEDTAVYFCARQTTGTWFAYWGQGTLVTVSS
VL: DIVLTQSPATLSLSPGERATLSCRASQSISEYLHWYQQKPGQAPRLLIKHASQSISGIPARFSGSGSGSDFTLTISSLEPEDFAVYYCQNGHSFPLTFGGGTKVEIKR
In turn, B1 gave an IC50 with B7-H3 [1] of 11.4 nM.

B2: 2-5 (antibody, V domains shown)
VH: B1 VH with G102S
VL: B1 VL with S28I, E31D, H50Y, S54L
B2 yielded an IC50 with B7-H3 [1] of 85 nM.

B3: 1-7 (antibody, V domains shown)
VH: B1 VH with F29Y
VL: B1 VL with E31P
Turning to B3, in the assay with B7-H3 [2], the IC50 worked out at 5.6 nM.

B4: 1-5 (antibody, V domains shown)
VH: B1 VH
VL: B1 VL with E31H, H50Y, I55L
Turning to B4, in the assay with B7-H3 [2], the concentration for half-maximal inhibition (IC50) was determined as 5.1 nM.

B5: 1-2 (antibody, V domains shown)
VH: B1 VH with K63T
VL: B1 VL with E31K, H50Y, S52N, S56R
B5: the IC50 with B7-H3 [2] came out at 10 nM.

B6: 1-1 (antibody, V domains shown)
VH: B1 VH with E62G
VL: B1 VL with E31P, H50Y, I55W
With B6, the IC50 with B7-H3 [2] came to 8.8 nM.

B7: 1-4 (antibody, V domains shown)
VH: B1 VH with E62P
VL: B1 VL with E31T, H50E
For the molecule B7, the IC50 with B7-H3 [2] stood at 5.6 nM.

B8: 8 (2-8Ig) (antibody, V domains shown)
VH: B1 VH
VL: B1 VL
Turning to B8, the Kd with B7-H3 [3] is 0.0234 nM; in the assay with B7-H3 [4], 0.0309 nM; with B7-H3 [5], 0.0135 nM; with B7-H3 [6], 0.0884 nM; in the assay with B7-H3 [7] it was 0.0218 nM; in the assay with B7-H3 [8], 0.0401 nM. In the assay with B7-H3 [9], this molecule had an equilibrium dissociation constant (Kd) of 0.0179 nM.
